Results: patent EP2348038A1, “Method for determining the activity of transglutaminase factor XIIIa” (PHILIPPS-UNIVERSITÄT MARBURG, priority 2010, dated 2011)

Key:
Assay type in all cases: biochemical
[1] = substrate: CC[C@H](C)[C@H](NC(=O)[C@@H](NC(=O)[C@H](CCCCN)NC(=O)[C@@H](NC(=O)[C@H](CCC(=O)Nc1ccc([N+](=O)[O-])cc1)NC(=O)[C@@H](N)Cc1ccc(O)cc1)C(C)C)C(C)C)C(=O)NCC(N)=O; assay: Cleavage of pNA substrates by activated factor XIIIa, absorbance at 405 nm (Michaelis-Menten kinetics and pre-test); details: other: pNA substrates, 37 °C, enzyme ca. 1,25 Einheiten/ml, varied substrate concentration, pH 7.5
Description: (§1) 250 Einheiten lyophilisiertes Fibrogammin HS (Aventis Behring) wurden in 4 ml Wasser gelöst, als 100 µl Portionen aliquotiert und bei -80 °C gelagert. 100 µl dieser Lösung enthalten 6,25 Einheiten FXIII.
(§2) 100 µl des aliqotierten Fibrogammins (entspricht 6,25 Einheiten) wurden mit 500 µl TBS-Puffer (50 mM Tris-HCl, pH 7,5 in 0,9% (w/v) NaCl), 360 µl einer 0.9 % NaCl-Lösung, 10 µl einer 1 M CaCl2-Lösung und 20 µl einer Thrombinlösung (Rinderthrombin: 14,2 U in 20 µl) versetzt. Der Ansatz wurde 20 min bei 37 °C inkubiert, danach wurden 10 µl einer Lösung mit rekombinantem Hirudin zugesetzt (r-Hirudin: HBW 023 mit 13442 IU mg^-1, Stammlösung des r-Hirudin = 1 mg/ml). Dieser Aktivierungsansatz besitzt ein Gesamtvolumen von 1 ml, der aktivierte Faktor Xllla wurde bei 37 °C aufbewahrt und für die folgenden kinetischen Messungen verwendet.
(§3) Die Messungen wurden bei 405 nm und 37 °C mit einem Microplate Reader der Firma Labsystems (iEMS Reader MF) mit folgendem Messansatz durchgeführt: • 150 µl TBS-Puffer (siehe oben, der Puffer kann gegebenenfalls auch eine Aminkomponente enthalten, beispielsweise H-Gly-Ethylester oder H-Gly-Gly-Ethylester oder ein anderes Amin, falls vorhanden ist die finale Konzentration des Amins im Messansatz 2,5 mM oder höher) • 50 µl Substratlösung • 50 µl Enzymlösung (im Messansatz ca. 1,25 Einheiten/ml)
(§4) Sämtliche Lösungen wurden vor Benutzung bei 37 °C aufbewahrt, vor Zugabe der FXllla-Lösung wurde die Mikroreadermessplatte nochmals 5 min bei 37 °C im Messgerät temperiert. Nach Zugabe der FXllla-Lösung wurde die Substratspaltung gestartet und die Änderung der Absorption bei 405 nm gemessen. Für einen Vortest wurde eine konstante Substratkonzentration verwendet. […] Wir haben vermutet, dass vor allem die Aminosäuren N- und C-terminal des Glu(pNA)-Restes wichtig für die Substraterkennung sind, deshalb wurde das N-terminale Glycin und das an dritter Position befindliche Serin innerhalb der Berichromsequenz durch andere Aminosäurereste ersetzt. Durch den Vortest wurde festgestellt, dass einige dieser Substrate deutlich schneller als die Derivate S1 und S2 gespalten werden. Für ausgewählte Substrate wurden die Substratkonzentrationen im Messansatz variiert und die bestimmten Umsatzgeschwindigkeiten als Funktion der Substratkonzentration entsprechend der Michaelis-Menten-Gleichung v=Vmax·[S]/(Km+[S]) aufgetragen und somit die kinetischen Konstanten Km und Vmax bestimmt, wobei Vmax in der Einheit Absorptionsänderung bei 405 nm/s erhalten wurde. Dies ist in Fig. 1 und Fig. 2 gezeigt.

[2] = substrate: CC[C@H](C)[C@H](NC(=O)[C@@H](NC(=O)[C@H](CCCCN)NC(=O)[C@@H](NC(=O)[C@H](CCC(=O)Nc1ccc([N+](=O)[O-])cc1)NC(=O)[C@@H](N)Cc1ccc(O)cc1)C(C)C)C(C)C)C(N)=O; assay: as above; details: other: pNA substrates, 37 °C, enzyme ca. 1,25 Einheiten/ml, varied substrate concentration, pH 7.5
Description: as §1, §2, §3, §4

[3] = substrate: CC[C@H](C)[C@H](NC(=O)[C@@H](NC(=O)[C@H](CCCNC(=N)N)NC(=O)[C@@H](NC(=O)[C@H](CCC(=O)Nc1ccc([N+](=O)[O-])cc1)NC(=O)[C@@H](N)Cc1ccc(O)cc1)C(C)C)C(C)C)C(=O)NCC(N)=O; assay: as above; details: other: pNA substrates, 37 °C, enzyme ca. 1,25 Einheiten/ml, varied substrate concentration, pH 7.5
Description: as §1, §2, §3, §4

[4] = substrate: CC[C@H](C)[C@H](NC(=O)[C@H](CCC(=O)Nc1ccc([N+](=O)[O-])cc1)NC(=O)[C@@H](N)Cc1ccc(O)cc1)C(=O)N[C@@H](CCCCN)C(=O)N[C@H](C(=O)N[C@H](C(=O)NCC(N)=O)[C@@H](C)CC)C(C)C; assay: as above; details: other: pNA substrates, 37 °C, enzyme ca. 1,25 Einheiten/ml, varied substrate concentration, pH 7.5
Description: as §1, §2, §3, §4

[5] = substrate: CC[C@H](C)[C@H](NC(=O)[C@@H](NC(=O)[C@H](CCCCN)NC(=O)[C@@H](NC(=O)[C@H](CCC(=O)Nc1ccc([N+](=O)[O-])cc1)NC(=O)[C@@H](N)CCCCN)C(C)C)C(C)C)C(=O)NCC(N)=O; assay: Cleavage of AMC substrates by activated factor XIIIa, fluorescence plate reader (Michaelis-Menten kinetics); details: other: AMC substrates; λEX = 380 nm, λEm = 460 nm, room temperature; enzyme ca. 0,893 Einheiten/ml
Description: (§5) Die Aliquotierung des Zymogens Faktor XIII und Aktivierung des Zymogens FXIII zu Faktor XIIIa erfolgten analog der in Beispiel 3 beschriebenen Prozedur.
(§6) Sämtliche Lösungen wurden bei Raumtemperatur aufbewahrt. Die Bestimmung der Spaltung der AMC-Substrate durch FXllla wurde mit einem Fluoreszenz-Plattenreader Safire^2 der Firma Tecan (λEX = 380 nm, λEm = 460 nm) bei Raumtemperatur durchgeführt. • 100 µl TBS-Puffer (siehe oben, der Puffer kann gegebenenfalls auch eine Aminkomponente enthalten, beispielsweise H-Gly-Ethylester oder H-Gly-Gly-Ethylester oder ein anderes Amin) • 50 µl Substratlösung • 25 µl Enzymlösung (im Messansatz ca. 0,893 Einheiten/ml)
(§7) Die Michaelis-Menten-Auftragung für die AMC-enthaltenden Substrate ist in Fig. 3 gezeigt.

[6] = substrate: CC[C@H](C)[C@H](NC(=O)[C@@H](NC(=O)[C@H](CCCCN)NC(=O)[C@H](CCCCNC(=O)OCc1ccccc1)NC(=O)[C@H](CCC(=O)Nc1ccc([N+](=O)[O-])cc1)NC(=O)[C@@H](N)Cc1c[nH]cn1)C(C)C)C(=O)NCC(N)=O; assay: as above; details: other: AMC substrates; λEX = 380 nm, λEm = 460 nm, room temperature; enzyme ca. 0,893 Einheiten/ml
Description: as §5, §6, §7

B1: Faktor XIIIa (Homo sapiens) (protein)
chain: GVNLQEFLNVTSVHLFKERWDTNKVDHHTDKYENNKLIVRRGQSFYVQIDFSRPYDPRRDLFRVEYVIGRYPQENKGTYIPVPIVSELQSGKWGAKIVMREDRSVRLSIQSSPKCIVGKFRMYVAVWTPYGVLRTSRNPETDTYILFNPWCEDDAVYLDNEKEREEYVLNDIGVIFYGEVNDIKTRSWSYGQFEDGILDTCLYVMDRAQMDLSGRGNPIKVSRVGSAMVNAKDDEGVLVGSWDNIYAYGVPPSAWTGSVDILLEYRSSENPVRYGQCWVFAGVFNTFLRCLGIPARIVTNYFSAHDNDANLQMDIFLEEDGNVNSKLTKDSVWNYHCWNEAWMTRPDLPVGFGGWQAVDSTPQENSDGMYRCGPASVQAIKHGHVCFQFDAPFVFAEVNSDLIYITAKKDGTHVVENVDATHIGKLIVTKQIGGDGMMDITDTYKFQEGQEEERLALETALMYGAKKPLNTEGVMKSRSNVDMDFEVENAVLGKDFKLSITFRNNSHNRYTITAYLSANITFYTGVPKAEFKKETFDVTLEPLSFKKEAVLIQAGEYMGQLLEQASLHFFVTARINETRDVLAKQKSTVLTIPEIIIKVRGTQVVGSDMTVTVEFTNPLKETLRNVWVHLDGPGVTRPMKKMFREIRPNSTVQWEEVCRPWVSGHRKLIASMSSDSLRHVYGELDVQIQRRPSM
notes: Aktivierung des Zymogens FXIII zu Faktor XIIIa; purchased Aventis Behring Fibrogammin HS
With B1 the Km [1] was 40 µM, the Km [2] was 86 µM and the Km [3] was 49 µM. For the same protein, the Km [4] was 78 µM, the Km [5] was 30 µM and the Km [6] was 41 µM.
